Measured values taken from patent US20140234868A1, “USE FOR GLYCOLIPOPROTEIN GINTONIN, ISOLATED AND IDENTIFIED FROM GINSENG, AS A NATURAL MEDICAL-PLANT DERIVED LIGAND” (KONKUK UNIVERSITY INDUSTRIAL COOPERATION CORP., priority 2011, published 2014).

Legend:
[1] = test system: rat hippocampal slices; test: Long-term potentiation (LTP) in rat hippocampal slices, theta burst stimulation; details: after TBS, n=4
Protocol: Since agintonin induces NMDA receptor activation as confirmed above, an examination was made of the effect of gintonin on LTP induction in rat hippocampal slices (Moon et al., Neursci. Lett. 466, 114-119, 2009; Lee et al., J Neurosci. Res. 89, 96-107, 2011). In this regard, LTP induction was studied after treatment with three different concentrations of gintonin (0.1, 1, and 10 μg/ml).
Male rats 3-5 weeks old (Sprague-Dawley strain) (Charls River, U.S.A.) were quickly sacrificed by cervical dislocation without using an anesthetic (Steidl et al., Brain Res. 1096, 70-84, 2006). With the aid of a rongeur (Fine Science Tools Inc., USA), the cranium was removed, and the brain was excised, immediately cooled in ice, and immersed in artificial cerebrospinal fluid (saCSF) containing oxygen-saturated (95% O2/5% CO2) sucrose (composition mM: Sucrose 248, NaHCO3 26, glucose 10, KCl 3, CaCl2 2, MgCl2 1, HEPES 10, pH7.4).
The hippocampus was sectioned into 400 μm slices using vibratome (MA752 motorised advance vibroslice; Campden inc.) and the hippocampal slices were stabilized in artificial cerebrospinal fluid (aCSF) (composition mM: […], NaHCO326, Glucose 10, KCl 3, CaCl2 2, MgCl2 1, HEPES 10, pH 7.4) for 1 hr (Lelong and Rebel, J Pharmacol Toxicol Methods. 39, 203-210, 1998).
OHSCs were incubated according to the Stoppini method (Stoppini et al., J Neurosci Methods 37, 173-182, 1991), and all procedures were conducted on a sterilized bench.
Immediately after excision from the cranium, the rat brain was immersed in an ice-cold HBSS-medium (LB 003-01, Sigma, St. Louis, Mo., USA), and the hippocampus was separated and sectioned at a thickness of 400 μm using a tissue chopper (Mickle Laboratory Engineering Co., Surrey, UK). The hippocampal slices were placed on a membrane insert (polytetrafluorethlene membranes, 0.4 μm Millicell-CM, Millipore Co., Bedford, Mass., USA), and immersed in a culture medium. […]

[2] = test system: mice; test: Busulfan-caused diarrhea and mucositis in mice; format: in vivo, mouse; details: for Diarrhea (cases / mice) / Mucositis (cases / mice): gintonin 100 mg/kg oral 3 days before, observed 10 days
Protocol: In this Example, an examination was made of the inhibitory activity of gintonin against chemotherapy-induced diarrhea and mucositis. For this, gintonin-treated mice were administered with busulfan, and observed for diarrhea and mucostitis.
Briefly, mice were orally administered at a dose of 100 mg/kg with gintonin 3 days before intraperitoneal injection with busulfan (40 mg/kg). For the control, physiological saline was used, instead of gintonin.

[3] = busulfan 40 mg/kg i.p., gintonin 100 mg/kg oral
[4] = busulfan 40 mg/kg i.p., listed as Gintonin + Busulfan

B1: gintonin: ginseng-derived glycolipoprotein; structural protein of ginseng major latex-like protein (MLP151) and ribonuclease-like storage proteins; crude gintonin used in tests (protein)
chain 1: MGLTGKLICQTGIKSDGDVFHELFGTRPHHVPNITPANIQGCDLHEGEFGKVGSVVIWNYSIDGNAMIAKEEIVAIDEEDKSVTFKVVEGHLFEEFKSIVFSVHVDTKGEDNLVTWSIDYEKLNESVKDPTSYLDFLLSVTRDIEAHHLPK
chain 2: RSDYPWAMFALRLQWPAGFCEVNNACDTKSLLNTFTIHGLYPYNAKGTPALYCDGTAFDVNSVSDFLAEMHLAWPSHETNTEDIQFWEHEWKKHGRCSEALLKQTDYFRTALAFRKAFDIVGLLNQEGIYPNNDLYRPKMIKEAIKKHLNAVPEIDFTKNENSEYVLTDINVCVNQQATRFVDCPTDDATDDYRLKFVRLPSKMKFADPRTNSII
With B1 the “total field excitatory postsynaptic potentials (total fEPSPs)” value ([1]; gintonin 0.1 μg/ml) was 180.90±7.53%, the “total field excitatory postsynaptic potentials (total fEPSPs)” value ([1]; gintonin 1 μg/ml) was 205.32±6.40% and the “total field excitatory postsynaptic potentials (total fEPSPs)” value ([1]; gintonin 10 μg/ml) was 214.14±11.55%. The diarrhea morbidity rate [2, 3] was 20%, the perianal mucositis morbidity [2, 3] was 13.3% and the “Diarrhea (cases / mice)” value ([2]; busulfan 40 mg/kg i.p.) was 3. For the same molecule, the “Mucositis (cases / mice)” value ([2]; busulfan 40 mg/kg i.p.) was 2, the “Diarrhea (cases / mice)” value [2, 4] was 3/15 and the “Mucositis (cases / mice)” value [2, 4] was 2/15. For the same molecule, the “inhibition of busulfan-caused perianal mucositis” value ([2]; gintonin 100 mg/kg oral) was 33.4% and the “reduction of busulfan-caused diarrhea” value ([2]; gintonin 100 mg/kg oral) was “more than 30%”.
